In patent US20240033354A1:

Molecular target: TcdB1 holotoxin (recombinant full-length TcdB1, VPI10463 strain, expressed in Bacillus megaterium) (Clostridium difficile, VPI10463 strain) (UniProt P18177)
Assay: cell-based or functional assay

**Q.** For Fab fragment of bezlotoxumab, which cell rounding assay on HeLa cells, TcdB1 10 pM, 6 h: reduction of cell-rounding at 2 µM (% reduction of cell-rounding at 2 µM) is on record?
**A.** 40
